Data on 1 molecule can be found in patent US20150196533A1, “METHOD FOR CONCURRENT TREATMENT OF PAIN AND DEPRESSION” (The General Hospital Corporation, priority 2012, published 2015).

The test system of one test is IDO1. Description: Intra-hippocampal microinjection in naive rats: hippocampal IDO1 mRNA (real-time PCR). The format is in vivo, rat. Particulars: 0.1 μg once daily x 7 d into the left hippocampus of naive rats; P<0.05. The protocol:
Under brief isoflurane anesthesia, a guide cannula (26 gauge, Plasticsone) was implanted just above the hippocampus (AP: −3.6 mm; left: +2.0 mm from Bregma; depth: −4.0 mm from skin) (Paxinos, G., and Watson, C. 1998. The rat brain in stertaxic coordinates. New York: Academic Press). An injection needle (33 gauge, Plasticsone) was inserted through the guide cannula and drug solution or vehicle (0.5 μl) was slowly injected over 5 min using a Hamilton syringe. Locations of the cannula placement were confirmed at the time of tissue harvest (data not shown).
Total RNA was isolated from hippocampal samples using TRIzol reagent (Invitrogen). Four μg of total RNA was used to synthesize the first strand cDNA using SuperScript III kit (Invitrogen). Four μl of cDNA was put into 20 μl vessel with 1 μl of 20× TaqMan Gene Expression Assay. Taqman Gene Expression Assays (Applied Biosystems) containing primers and a Taqman probe were used to quantify each gene of interest. The genes examined were IL-6 (Rn01410330 m1, M26744.1) and IDO1 (Rn00576778 m1, AF312699.1) for rats and IL-6 (Mm00446190 m1, X54542.1) and IDO1 (Mm00492586 m1, M69109.1) for mice. […] The RNA expression of GAPDH was measured as control.
(Real-time PCR tracks product formation cycle by cycle.)

The test system of test [1] is IDO1 expression in hippocampal organotypic slice culture. Description: IL-6 exposure of organotypic hippocampal slice culture: IDO1 expression and activity. The format is cell-based, rat. The settings on record: 100 ng/ml for 24 hours. The text has this:
According to a modified method (Stoppini, L., Buchs, P. A., and Muller, D. 1991. A simple method for organotypic cultures of nervous tissue. J Neurosci. Methods 37:173-182.; Fu, X., Zunich, S. M., O'Connor, J. C., Kavelaars, A., Dantzer, R., and Kelley, K. W. 2010. Central administration of lipopolysaccharide induces depressive-like behavior in vivo and activates brain indoleamine 2,3 dioxygenase in murine organotypic hippocampal slice cultures. J Neuroinflammation. 7:43) organotypic hippocampal cultures were prepared using hippocampus slices from 5 to 8-day-old Wistar rats. Rat pups were euthanized by decapitation and brains were rapidly removed and the hippocampus was separated from the brain. Hippocampal slices (350 μm in thickness) were made using a Mcllwain tissue chopper (Campden Instruments Ltd) and placed in the Gey's balanced salt solution (Sigma-Aldrich) with 2 mg/ml D-glucose. Slices were then placed on 30-mm Millicell-CM (Millipore) porous (0.4 μm) membranes. These membranes were transferred into six-well culture plates filled with an incubation medium (1 ml) consisting of 50% vol/vol minimal essential medium, 25% heat-inactivated horse serum and 25% HBSS (Invitrogen), supplemented with 25 mM D-glucose. Plates were incubated in a humidified atmosphere of 5% CO2 and 95% air at 37° C. Culture medium was changed 3 times a week. Slices were treated with 100 ng/ml IL-6 or vehicle and collected 24 hours later for assays (Hakkoum, D., Stoppini, L., and Muller, D. 2007. Interleukin-6 promotes sprouting and functional recovery in lesioned organotypic hippocampal slice cultures. J Neurochem. 100:747-757).
Rats were sacrificed under pentobarbital anesthesia. The hippocampus was separated from the brain and immediately stored on dry ice and kept at −80° C. until use. Samples were homogenized in a lysis buffer with SDS containing a cocktail of proteinase inhibitors (Roche). Samples were separated on an SDS-PAGE gel (4%-15% gradient gel; Bio-Rad) and transferred to polyvinylidene difluoride filter (PVDF) membranes (Millipore). Membranes were blocked with 5% nonfat dried milk for 1 hour at room temperature and incubated over night at 4° C. on a rocker with one of following primary antibody: 1:200 IDO1 (Santa Cruz Biotechnology Inc.; rabbit polyclonal antibody), 1:200 IDO1 (Novius Biologicals; rabbit polyclonal antibody), 1:500 JAK2 (Santa Cruz Biotechnology Inc.; rabbit polyclonal antibody), 1:1,000 STAT3 (Millipore; rabbit polyclonal antibody), 1:5,000 p-STAT3 (Abcam; rabbit monoclonal antibody). After membranes were washed with PBS×4, membranes were incubated with 1:8,000 HRP conjugated secondary antibody (Amersham, Biosciences) for 1 hour at room temperature on a rocker. The membranes were washed with PBS×4 and blots were visualized in enhanced Chemiluminescent (ECL) solution (Pierce) for 5 minutes and exposed to hyperfilms (Kodak) for 15 minutes. Blots were again incubated in a Stripping buffer (Pierce) for 15 minutes at room temperature on a rocker and reprobed with 1:12,000 anti-β-actin antibody (Abeam Inc.) as a loading control. Western blots were made in triplicates. Band density was measured and normalized against a loading control band.
Total RNA was isolated from hippocampal samples using TRIzol reagent (Invitrogen). […] Taqman Gene Expression Assays (Applied Biosystems) containing primers and a Taqman probe were used to quantify each gene of interest. […]

Entries after “also recorded” stand apart in the source; their conditions may differ.

B1: IL-6: exogenous IL-6 (recombinant rat IL-6), proinflammatory cytokine (protein, UniProt P20607 25-211, looked up)
Interleukin-6: FPTSQVRRGDFTEDTTHNRPVYTTSQVGGLITYVLREILEMRKELCNGNSDCMNSDDALSENNLKLPEIQRNDGCFQTGYNQEICLLKICSGLLEFRFYLEFVKNNLQDNKKDKARVIQSNTETLVHIFKQEIKDSYKIVLPTPTSNALLMEKLESQKEWLRTKTIQLILKALEEFLKVTMRSTRQT
For B1, the “hippocampal IDO1 mRNA expression (FIG. 9H)” value in the test on IDO1 is on record as “increased IDO1 mRNA expression in the hippocampus; also recorded: up-regulated the hippocampal IDO1 mRNA expression”. Further, in test [1], the “IDO1 immunoreactivity (FIG. 8F)” value is “increased IDO1 immunoreactivity; also recorded: increased the expression of IDO1”. Also, in test [1] (P<0.05), the “IDO1 mRNA expression (real-time PCR; FIG. 8G)” value was “up-regulated; also recorded: increased the expression of IDO1”, the “IDO1 protein expression (Western blot; FIG. 8H)” value is listed as “up-regulated; also recorded: increased the expression of IDO1”, the “kynurenine/tryptophan ratio in the culture medium (HPLC; FIG. 8I)” value is on record as “significantly increased; also recorded: increased KYN/TRP ratio” and the “serotonin/tryptophan ratio in the culture medium (HPLC; FIG. 8I)” value is listed as “decreased 5-HT/TRP ratio”.
